The target of the test is GvpA of Anabaena flos-aquae gas vesicles (GvpA-based shell of urea-stripped Ana GVs) (Anabaena flos-aquae) (UniProt P10397). Nature of the test: SDS-PAGE of ST-Ana GVs against a standard curve of GvpC-ST.
Sequence of UniProt P10397 (P10397 2-71): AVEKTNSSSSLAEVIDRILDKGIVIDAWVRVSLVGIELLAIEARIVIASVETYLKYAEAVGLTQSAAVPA

B1: GvpC-SpyTag (GvpC comprising a SpyTag fused to the C-terminus, and a His-tag fused to the C-terminus of the SpyTag) (protein)
chain: MGISLMAKIRQEHQSIAEKVAELSLETREFLSVTTAKRQEQAEKQAQELQAFYKDLQETSQQFLSETAQARIAQAEKQAQELLAFHKELQETSQQFLSATAQARIAQAEKQAQELLAFYQEVRETSQQFLSATAQARIAQAEKQAQELLAFHKELQETSQQFLSATADARTAQAKEQKESLLKFRQDLFVSIFGSGAHIVMVDAYKPTKGSGLEHHHHHH
The molecule B1 had a SpyTag functionalities per GV of 1000 per GV.

The record behind these values is patent US20180028693A1.
